Legend:
[1] = target: soluble DR 2a (DRB5*0101) molecules isolated from L cells transfectant L416.3 (human) (UniProt P01903)
[2] = target: soluble DR 8 (DRB1*0801) class II molecules purified from BM9 EBV-B cells (human) (UniProt P01903); assay: peptide competition ELISA, soluble DR 8, biotinylated indicator GYR(A)6L
[3] = target: soluble DR 1 (DRB1*0101) class II molecules purified from HOM-2 EBV-B cells (human) (UniProt P01903); assay: peptide competition ELISA, soluble DR 1, biotinylated indicator GFK(A)7
[4] = target: soluble DR4 (DRB1*0401) class II molecules purified from BSM or PREISS EBV-B cells (human) (UniProt P01903); assay: peptide competition ELISA, soluble DR 4, biotinylated indicator UD4
[5] = target: soluble DR 11 (DRB1*1101) class II molecules purified from SWEIG EBV-B cells (human) (UniProt P01903); assay: peptide competition ELISA, soluble DR 11, biotinylated indicator TT831-843
[6] = target: soluble DR 7 (DRB1*0701) class II molecules purified from EKR EBV-B cells (human) (UniProt P01903); assay: peptide competition ELISA, soluble DR 7, biotinylated indicator GFK(A)7, pH 5

With “HA307-319 peptide derived from influenza hemagglutinin” the IC50 [1] was 30 nM, the IC50 [2] was 5000 nM and the IC50 [3] was 100 nM. The IC50 [4] was 1000 nM, the IC50 [5] was 1000 nM and the IC50 [6] was 100 nM.
